From patent US20240277805A1

Molecular target: T1, myostatin (UniProt O14793)
T1 sequence (looked up): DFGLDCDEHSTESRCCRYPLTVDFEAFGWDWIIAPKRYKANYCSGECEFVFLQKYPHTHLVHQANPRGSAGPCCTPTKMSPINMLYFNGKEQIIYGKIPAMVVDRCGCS
Test: cell-based or functional assay

B1: STM 434 (svActRIIB-Fc (E28W, S44T) polypeptide without signal sequence) (Fc fusion)
chain: ETRWCIYYNANWELERTNQTGLERCEGEQDKRLHCYASWRNSSGTIELVKKGCWLDDFNCYDRQECVATEENPQVYFCCCEGNFCNERFTHLPEAGGPEVTYEPPPTAPTGGGGSVECPPCPAPPVAGPSVFLFPPKPKDTLMISRTPEVTCVVVDVSHEDPEVQFNWYVDGVEVHNAKTKPREEQFNSTFRVVSVLTVVHQDWLNGKEYKCKVSNKGLPAPIEKTISKTKGQPREPQVYTLPPSREEMTKNQVSLTCLVKGFYPSDIAVEWESNGQPENNYKTTPPMLDSDGSFFLYSKLTVDKSRWQQGNVFSCSVMHEALHNHYTQKSLSLSPGK
  Bioassay % relative potency; lot 0010036965, 5° C. upright, 0 months (% relative potency): 100
  Bioassay % relative potency; lot 0010036965, 5° C. upright, 0.5 months (% relative potency): 99
  Bioassay % relative potency; lot 0010036965, 5° C. upright, 1 month (% relative potency): 100
  Bioassay % relative potency; lot 0010036965, 5° C. upright, 3 months (% relative potency): 104
  Bioassay % relative potency; lot 0010036965, 5° C. upright, 6 months (% relative potency): 94
  Bioassay % relative potency; lot 0010036965, 25° C. upright, 0 months (% relative potency): 100
  Bioassay % relative potency; lot 0010036965, 25° C. upright, 0.25 months (% relative potency): 97
  Bioassay % relative potency; lot 0010036965, -20° C. upright, 0 months (% relative potency): 100
  Bioassay % relative potency; lot 0010036965, -20° C. upright, 1 month (% relative potency): 100
  Bioassay % relative potency; lot 0010036965, -20° C. upright, 3 months (% relative potency): 102
  Bioassay % relative potency; lot 0010036965, -20° C. upright, 6 months (% relative potency): 95
  Bioassay % relative potency; lot 0010036965, -20° C. upright, 9 months (% relative potency): 103
  Bioassay % relative potency; lot 0010036965, -20° C. upright, 12 months (% relative potency): 102
  Bioassay % relative potency; lot 0010036965, -20° C. upright, 18 months (% relative potency): 102
  Bioassay % relative potency; lot 0010036965, -20° C. upright, 24 months (% relative potency): 99
  Bioassay % relative potency; lot 0010036965, -20° C. upright, 30 months (% relative potency): 102
  Bioassay % relative potency; lot 0010036965, -70° C. upright, 0 months (% relative potency): 100
  Bioassay % relative potency; lot 0010036965, -70° C. upright, 12 months (% relative potency): 100
  Bioassay % relative potency; lot 0010036965, -70° C. upright, 24 months (% relative potency): 100
  Bioassay % relative potency; lot 0010036965, T = 0 of the 5 × freeze/thaw study (% relative potency): 100
  Bioassay % relative potency; lot 0010036965, after 5 × F/T (% relative potency): 100
  Bioassay % relative potency; lot EG-13-0150, 2-8° C. upright, 0 months (% relative potency): 99
  Bioassay % relative potency; lot EG-13-0150, 2-8° C. upright, 1 month (% relative potency): 93.2
  Bioassay % relative potency; lot EG-13-0150, 2-8° C. upright, 3 months (% relative potency): 99.7
  Bioassay % relative potency; lot EG-13-0150, 2-8° C. upright, 6 months (% relative potency): 114
  Bioassay % relative potency; lot EG-13-0150, 2-8° C. upright, 9 months (% relative potency): 103
  Bioassay % relative potency; lot EG-13-0150, 2-8° C. upright, 12 months (% relative potency): 106
  Bioassay % relative potency; lot EG-13-0150, 25° C. upright, 0 months (% relative potency): 99
  Bioassay % relative potency; lot EG-13-0150, 25° C. upright, 1 month (% relative potency): 86.9
  Bioassay % relative potency; lot EG-13-0150, -20° C. upright, 0 months (% relative potency): 99
  Bioassay % relative potency; lot EG-13-0150, -20° C. upright, 1 month (% relative potency): 93.2
  Bioassay % relative potency; lot EG-13-0150, -20° C. upright, 3 months (% relative potency): 94.4
  Bioassay % relative potency; lot EG-13-0150, -20° C. upright, 6 months (% relative potency): 110
  Bioassay % relative potency; lot EG-13-0150, -20° C. upright, 9 months (% relative potency): 99.3
  Bioassay % relative potency; lot EG-13-0150, -20° C. upright, 12 months (% relative potency): 105
  Bioassay % relative potency; lot EG-13-0150, T = 0 of the 5 × freeze/thaw study (% relative potency): 99
  Bioassay % relative potency; lot EG-13-0150, after 5 × F/T (% relative potency): 96
  Bioassay % relative potency; lot FG-13-0230, 2-8° C. upright, 0 months (% relative potency): 99
  Bioassay % relative potency; lot FG-13-0230, 2-8° C. upright, 1 month (% relative potency): 116
  Bioassay % relative potency; lot FG-13-0230, 2-8° C. upright, 3 months (% relative potency): 108
  Bioassay % relative potency; lot FG-13-0230, 2-8° C. upright, 6 months (% relative potency): 93
  Bioassay % relative potency; lot FG-13-0230, 2-8° C. upright, 9 months (% relative potency): 116
  Bioassay % relative potency; lot FG-13-0230, 2-8° C. upright, 12 months (% relative potency): 121
  Bioassay % relative potency; lot FG-13-0230, 25° C. upright, 0 months (% relative potency): 99
  Bioassay % relative potency; lot FG-13-0230, 25° C. upright, 1 month (% relative potency): 116
  Bioassay % relative potency; lot FG-13-0230, -20° C. upright, 0 months (% relative potency): 99
  Bioassay % relative potency; lot FG-13-0230, -20° C. upright, 1 month (% relative potency): 100
  Bioassay % relative potency; lot FG-13-0230, -20° C. upright, 3 months (% relative potency): 115
  Bioassay % relative potency; lot FG-13-0230, -20° C. upright, 6 months (% relative potency): 96
  Bioassay % relative potency; lot FG-13-0230, -20° C. upright, 9 months (% relative potency): 94
  Bioassay % relative potency; lot FG-13-0230, -20° C. upright, 12 months (% relative potency): 106
  Bioassay % relative potency; lot FG-13-0230, -70° C. upright, 0 months (% relative potency): 99
  Bioassay % relative potency; lot FG-13-0230, -70° C. upright, 1 month (% relative potency): 115
  Bioassay % relative potency; lot FG-13-0230, -70° C. upright, 3 months (% relative potency): 107
  Bioassay % relative potency; lot FG-14-0056, 2-8° C. upright, 0 months (% relative potency): 99
  Bioassay % relative potency; lot FG-14-0056, 2-8° C. upright, 1 month (% relative potency): 102
  Bioassay % relative potency; lot FG-14-0056, 25° C. upright, 0 months (% relative potency): 99
  Bioassay % relative potency; lot FG-14-0056, 25° C. upright, 1 month (% relative potency): 122
  Bioassay % relative potency; lot FG-14-0056, -20° C. by the title (condition line prints 2-8° C.), 0 months (% relative potency): 99
  Bioassay % relative potency; lot FG-14-0056, -20° C. by the title (condition line prints 2-8° C.), 1 month (% relative potency): 117
  Bioassay % relative potency; lot FG-14-0109, 2-8° C. inverted, 0 months (% relative potency): 98
  Bioassay % relative potency; lot FG-14-0109, 2-8° C. inverted, 3 months (% relative potency): 96
  Bioassay % relative potency; lot FG-14-0109, 2-8° C. inverted, 6 months (% relative potency): 112
  Bioassay % relative potency; lot FG-14-0109, 2-8° C. upright, 0 months (% relative potency): 98
  Bioassay % relative potency; lot FG-14-0109, 2-8° C. upright, 3 months (% relative potency): 92
  Bioassay % relative potency; lot FG-14-0109, 2-8° C. upright, 6 months (% relative potency): 107
  Bioassay % relative potency; lot FG-14-0109, 25° C. inverted, 0 months (% relative potency): 98
  Bioassay % relative potency; lot FG-14-0109, 25° C. inverted, 3 months (% relative potency): 94
  Bioassay % relative potency; lot FG-14-0109, 25° C. inverted, 6 months (% relative potency): 98
  Bioassay % relative potency; lot FG-14-0109, 25° C. upright, 0 months (% relative potency): 98
  Bioassay % relative potency; lot FG-14-0109, 25° C. upright, 3 months (% relative potency): 91
  Bioassay % relative potency; lot FG-14-0109, 25° C. upright, 6 months (% relative potency): 105
  Bioassay % relative potency; lot FG-14-0109, -20° C. upright, 0 months (% relative potency): 98
  Bioassay % relative potency; lot FG-14-0109, -20° C. upright, 3 months (% relative potency): 96
  Bioassay % relative potency; lot FG-14-0109, -20° C. upright, 6 months (% relative potency): 101
  Cell Based Bioassay, Relative Potency; DP lot 0010036965, 5° C., 54 months (% relative potency): 87
  Cell Based Bioassay, Relative Potency; DP lot 0010036965, -20° C., 54 months (% relative potency): 99
  Cell Based Bioassay, Relative Potency; DP lot 0010036965, -70° C., 54 months (% relative potency): 111
  Cell Based Bioassay, Relative Potency; DS lot 0010035106, 5° C., 54 months (% relative potency): 101
  Cell Based Bioassay, Relative Potency; DS lot 0010035106, -70° C., 54 months (% relative potency): 99
